# Numbering of substitutions follows the chain as printed.
# T1: human LIV-1 (human, UniProt Q13433 29-755)
# T1 sequence (looked up): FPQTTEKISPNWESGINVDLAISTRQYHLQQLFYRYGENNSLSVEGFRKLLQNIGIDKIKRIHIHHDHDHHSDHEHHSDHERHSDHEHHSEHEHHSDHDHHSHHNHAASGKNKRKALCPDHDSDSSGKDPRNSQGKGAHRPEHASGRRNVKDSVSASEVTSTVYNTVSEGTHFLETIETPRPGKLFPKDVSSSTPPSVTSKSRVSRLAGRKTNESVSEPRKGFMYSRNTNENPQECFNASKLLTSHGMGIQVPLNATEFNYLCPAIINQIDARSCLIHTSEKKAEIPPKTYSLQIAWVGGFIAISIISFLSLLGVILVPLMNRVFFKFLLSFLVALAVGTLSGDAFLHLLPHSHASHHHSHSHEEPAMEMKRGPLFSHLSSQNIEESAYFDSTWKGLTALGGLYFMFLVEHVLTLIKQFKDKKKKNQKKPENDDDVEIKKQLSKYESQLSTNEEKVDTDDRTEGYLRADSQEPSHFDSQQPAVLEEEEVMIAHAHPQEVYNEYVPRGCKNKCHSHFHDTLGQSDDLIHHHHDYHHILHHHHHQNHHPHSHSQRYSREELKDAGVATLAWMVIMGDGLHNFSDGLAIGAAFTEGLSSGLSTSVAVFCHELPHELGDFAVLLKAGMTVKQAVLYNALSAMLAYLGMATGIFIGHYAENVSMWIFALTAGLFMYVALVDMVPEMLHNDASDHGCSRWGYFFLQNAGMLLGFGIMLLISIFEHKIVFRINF
# B1: 109C9D4 (antibody, V domains shown)
# VH: EVKLVESGGGLVQPGGSRKLSCAASGFTFSDYGMAWVRQAPGKGPEWVTFISNLAYSIYYADTVTGRFTISRENAKNTLYLEMSSLRSEDTAMYYCARVEENGNYFDYWGQGTTLTVSS
# VL: DIQMTQTTSSLSASLGDRVTIRCRASQDIGIYLHWYQQKPDGTVKLLIYYTSRLHSGVPSRFSGSRSGTDYSLTIGNLEQEDIATYFCLQGNTIPPTFGGGTKLEIK
# notes: Tested as chimeric antibody
# B2: 59C12C8 (antibody, V domains shown)
# VH: EVQLQQSGAELVRSGASVKLSCTASDFNIEDYYIHWVKQRPEQGLEWIGWIDPENGDTEYAPKFQGKATMTADTSSNTAYLQLSSLTSEDTAVYYCPHGGGFRVFDYWGQGTTLTVSS
# VL: DVLMTQTPLSLPVSLGDQASISCRSSQRIVHSNGNTYLEWYLQKPGQSPKLLIYKVSNRFSGVPDRFSGSGSGTDFTLKISRVEAEDLGVYYCFQGSHVPWTFGGGTKLEIK
# notes: Tested as chimeric antibody
# B3: 112H11C12 (antibody, V domains shown)
# VH: QVQLQQPGAELVRPGASVKLSCKASGYTFTSYWMNWVKQRPGQGLKWIGMIDPSNSKTHYNQMFKDKATLTVDKSSNTAYMQLSSLTSEDSAVYYCARTSTTMATFAYWGQGTLVSVSA
# VL: B2 VL with R28S, G96A, V99F, W101L, G105A, K108E, E110D, I111L, K112N
# notes: Tested as chimeric antibody; also called 112H1C12
# B4: 124H4D11 (antibody, V domains shown)
# VH: EVPLQQSGAELVRSGASVKLSCTASGFNIKDYYMHWVKQRPEQGLEWIGWIDPENGDTEYDPKFQGKATMTADTSSNTADLQLSSLTSEDTAVYYCNARYYAFDYWGQGTTLTVSS
# VL: B2 VL with R28S, D75E, H98Q, W101P, K108R
# notes: Tested as chimeric antibody
# B5: 136F3D10C10 (antibody, V domains shown)
# VH: QVQLQQSGPELVKPGASVRIFCKASGYTFTSFHIHWVKQRPGQGLEWIGWIYPGNDNTDHNEKFKGKATLSADKSSSTVYMQLSSLTSEDSAVYFCGRSNYYGPLFAYWGQGTLVTVSA
# VL: B2 VL with V2I, R28N, H31R, L51V, K55R, H98Y, W101Y
# notes: Tested as chimeric antibody
# B6: 47G1B10 (antibody, V domains shown)
# VH: QVQLKQSGPGLVQPSQSLSITCTVSGFSLTTYGVHWVRQSPGKGLEWLGVIWTGGTTDYNAAFISRLSISKDNSKSQVFFKMNSLQANDTAIYYCARGPSSYWGQGTLVTVSA
# VL: DIVMTQSQKFMSTSVGDRVSVTCKASQNVDTNVVWYQQKPGQSPKALIHSASYRYSGVPDRFTGSGSGTDFTLTISNVQSEDLAEYFCQQYNNYPWTFGGGTKLEIK
# notes: Tested as chimeric antibody
# B7: 39D10B2 (antibody, V domains shown)
# VH: B6 VH with I92M
# VL: B6 VL
# notes: Tested as chimeric antibody
# B8: 127A2B9 (antibody, V domains shown)
# VH: EVQLQESGPSLVKPSQTLSLTCSVTGDSITSGYWNWIRKLPGNKLEYMGYISYSGSTYYNPSLKSRISITRDTSKNQYYLQLNSVTTEDTATYYCARIYYDYDGYFDVWGAGTTVTVSS
# VL: DIVMTQAAPSVPVTPGESVSISCRSSKSLLHSNGNTFLYWFLQRPGQSPQLLIYRMSNLASGVPDRFSGSGSGTAFTLRISRVEAEDVGVYYCMQHLEYPYTFGGGTKLEIK
# notes: Tested as chimeric antibody
# B9: 290F10G10.p1.Z13 (antibody, V domains shown)
# VH: EVQLVQSGAEVKKPGASVKVSCKASGYTFTSYWIHWVRQAPGQGLEWIGTIYPGDADTRSTQKFKDKATVTADKSTSTVYMELSSLRSEDTAVYYCTRSLIHDDYDKYYFDYWGQGTTVTVSS
# VL: DIQMTQSPSSLSASVGDRVTITCKARQDINKYIAWYQQKPGKAPKLLIYYTSILQPGVPSRFSGSGSGRDYTFTISSLQPEDIATYYCLQYDYFFTFGGGTKVEIK
# B10: 290F10G10.p1.Z14 (antibody, V domains shown)
# VH: B9 VH
# VL: B9 VL with Y49H, V58I
# B11: 290F10G10.p1.Z18 (antibody, V domains shown)
# VH: B9 VH with V2I, Q39E
# VL: B9 VL with Q38H, A43G, Y49H, V58I
# B12: 290F10G10.p1.Z16 (antibody, V domains shown)
# VH: B9 VH with V2I, Q39E
# VL: B9 VL
# B13: 290F10G10.p1.Z15 (antibody, V domains shown)
# VH: B9 VH
# VL: B9 VL with Q38H, A43G, Y49H, V58I
# B14: 290F10G10.p1.Z17 (antibody, V domains shown)
# VH: B9 VH with V2I, Q39E
# VL: B9 VL with Y49H, V58I
# Molecular target: T1, human LIV-1
# Assay: cell-based or functional assay
Binder,ADCC reporter EC50 [nM],ADCC reporter Top (RFU)
B1,4.1,101000
B2,1.1,36300
B3,20.5,74700
B4,2.1,81900
B5,4.8,83900
B6,0.3,191000
B7,0.2,151000

# Molecular target: T1, human LIV-1
# Assay: cell-based or functional assay
# Remark: another data set of the same source
Binder,Internalization EC50 [nM],Internalization Top (RFU)
B1,4.2,554000
B2,3.9,408000
B3,13.2,643000
B4,4.3,474000
B5,32.2,835000
B8,51.8,558000
B6,10.1,178000
B7,16.9,171000

# Molecular target: T1, human LIV-1
# Assay: cell-based or functional assay
# Remark: another data set of the same source
Binder,Cell viability(%),Cytotoxicity IC50 [nM]
B1,18.5,0.69
B2,20.3,0.81
B3,18,2.08
B4,15.4,0.57
B5,16.3,1.21
B8,17.8,2.25
B6,17.7,1.53
B7,16.2,1.54

# Molecular target: T2, cynomolgus LIV-1 (cynomolgus, UniProt A0A2K5WH46 30-741)
# Assay: FACS, cyno LIV-1 cells
# Target sequence in this assay (A0A2K5WH46 entry or part of it): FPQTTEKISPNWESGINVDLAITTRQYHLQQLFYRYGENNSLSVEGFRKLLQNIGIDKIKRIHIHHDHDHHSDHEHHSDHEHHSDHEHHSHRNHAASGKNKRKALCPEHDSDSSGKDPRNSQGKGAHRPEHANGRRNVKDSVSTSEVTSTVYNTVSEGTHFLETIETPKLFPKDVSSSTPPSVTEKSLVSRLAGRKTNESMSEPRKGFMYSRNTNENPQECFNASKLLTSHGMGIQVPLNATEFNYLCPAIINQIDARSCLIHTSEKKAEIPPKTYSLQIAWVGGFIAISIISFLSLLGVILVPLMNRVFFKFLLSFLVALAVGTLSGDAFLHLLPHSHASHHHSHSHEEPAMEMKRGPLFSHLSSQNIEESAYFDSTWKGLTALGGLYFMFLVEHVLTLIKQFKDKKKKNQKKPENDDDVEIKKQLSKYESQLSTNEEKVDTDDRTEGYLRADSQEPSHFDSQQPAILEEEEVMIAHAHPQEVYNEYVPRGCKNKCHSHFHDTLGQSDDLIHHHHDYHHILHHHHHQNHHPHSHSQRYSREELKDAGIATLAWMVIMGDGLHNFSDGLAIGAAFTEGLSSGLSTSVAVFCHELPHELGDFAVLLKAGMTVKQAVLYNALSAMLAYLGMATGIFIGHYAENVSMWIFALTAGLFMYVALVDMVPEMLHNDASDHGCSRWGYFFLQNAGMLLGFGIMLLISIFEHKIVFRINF
Binder,EC50 [nM],Top (MFI)
B9,0.46,7180
B10,0.48,7220
B11,0.56,7040
B12,0.61,6920
B13,0.36,7210
B14,0.51,6820

# Molecular target: T1, human LIV-1
# Assay: FACS, human LIV-1 cells
# Protocol: In this example, cell based binding of humanized antibodies (hu Abs) on human LIV-1-expressing cells were assessed using flow cytometry.
# Cell based binding of hu-Abs on human LIV-1 expressing cells were assessed using flow cytometry. Briefly, the HEK293/H_LIV-1 cells were incubated with hu-Abs (from 100 nM, 6 folds dilution, 8 points). After incubation at 4° C. for 60 minutes, the cells were washed with FACS buffer twice, then stained with fluorescent conjugated secondary antibody at 4° C. for 30 minutes. After that the cells were washed twice and analyzed by flow cytometry.
Binder,EC50 [nM],Top (MFI)
B9,0.32,7630
B10,0.3,7410
B11,0.36,7430
B12,0.43,7440
B13,0.27,7550
B14,0.39,7520

# Molecular target: T1, human LIV-1
# Assay: FACS, HEK293/H_LIV-1 cells
# Protocol: (§1) In this example, cell based binding of chimeric Abs on human and cyno LIV-1 over-expressing HEK 293 cells were assessed using flow cytometry.
# (§2) Briefly, cells were incubated with chimeric Abs (from 100 nM, 5 folds dilution, 8 points). After incubation at 4° C. for 60 minutes, the cells were washed with 2% FBS/PBS buffer twice, then stained with fluorescent conjugated secondary antibody at 4° C. for 30 minutes. After that the cells were washed twice and resuspended in 80 μL of 2% FBS/PBS buffer. Fluorescent signal of binding was detected using Agilent. The EC50 was calculated using the GraphPad Software (LaJolla, CA).
Binder,EC50 [nM],Top (MFI)
B1,0.43,7340
B2,0.1,15100
B3,20.7,8800
B4,0.23,7980
B5,0.85,7910
B8,4.03,34600
B6,0.37,60900
B7,0.24,61800

# Molecular target: T2, cynomolgus LIV-1
# Assay: FACS, HEK293/Cyno_LIV-1 cells
# Protocol: as §1, §2
Binder,EC50 [nM],Top (MFI)
B1,1.33,2340
B2,0.11,8060
B3,12,2930
B4,0.2,3370
B5,0.76,3450
B8,3.92,21700
B6,0.3,36700
B7,0.21,37300
